In patent publication US10864251B2, “Peptides of syndecan-1 for inhibiting angiogenesis” (Wisconsin Alumni Research Foundation, priority 2006, dated 2020):
Like-named read-outs stand apart in the source and are kept apart here. Where no end group is shown, it is not given here.

Columns and labels:
[1] = test system: FGF-induced angiogenesis in the mouse cornea; experiment: Corneal pocket implant angiogenesis assay; assay type: in vivo
Procedure: FIG. 13—Inhibition of corneal angiogenesis by SSTN. PolyHEMA pellets (0.25 μL) containing 67 ng FGF-2 and sucralfate were implanted into the avascular mouse cornea. Alzet pumps containing PBS, 2500 μM mS1ED or a range of SSTN concentrations (0-100 μM) were implanted subcutaneously on the back of the animals and angiogenesis for 7 days. Fluorescent dextran was injected suborbitally for 2 min prior to sacrifice for observation of the vascular system in dissected cornea (picture insets). Total angiogenesis is quantified as total length of vessels growing from the limbic vessels at the margin of the cornea.
A polyhydroxyethylmethacrylate (PolyHEMA) pellet 1 μl in volume containing 100 ng FGF was implanted into pockets surgically prepared in the center of the avascular corneas of 6 wk-old Balb/c mice. Three mice were used as controls and three mice received a 0.2 ml Alzet osmotic pump implanted subcutaneously on the back of the mice. The pump was loaded with 100 μM synstatin82-130 in sterile saline and delivers 1 μl into the mouse per hr. The mice were allowed to recover and were maintained for seven days. The extent of angiogenesis was recorded by digital camera images of the living mouse. Fluorescent dextran was then injected into the vascular via retro-orbital injection 1-2 minutes prior to sacrifice. Corneas were surgically removed, mounted on slides and the extent of vascularization observed via fluorescence microscopy.
To test the efficacy of synstatin82-130 in vivo, the inventors have used the mouse corneal pocket implant angiogenesis assay. Here, angiogenesis is induced in the avascular mouse cornea by implantation of a polyHEMA pellet containing fibroblast growth factor (FGF), which is a potent angiogenic agent. The FGF will induce angiogenic outgrowth of new vessels from the limbic vessels at the margin of the cornea into the avascular region at the center of the cornea where the pellet is implanted. The inventors have tested recombinant S1ED by supplying it along with the FGF in the pellet implanted into the cornea, and have also introduced it into the systemic circulation of the mouse through the use of an osmotic pump placed subcutaneously on the back of the animal. The latter protocol more closely mimics the manner in which such an inhibitor might be delivered as a drug in patients. […] The concentration necessary for the block in vivo has not yet been measured. […] However, this is likely to be a high estimate, as clearance and degradation are likely to occur, and the protein is likely to be present in the greater volume of the mouse than just the vascular system.
Lastly, SSTN was tested in the in vivo corneal angiogenesis assay. Polyhydroxyethylmethylacrylate pellets (0.25 μL) containing 67 ng FGF-2 and sucralfate as a slow release agent were implanted into the avascular mouse cornea. After seven days, fluorescent dextran was injected suborbitally to highlight the vascular system and the mice were sacrificed. […] To supply the inhibitor in a more quantifiable and physiological manner, recombinant mS1ED or SSTN were delivered systemically via Alzet osmotic pumps implanted subcutaneously on the backs of the animals. […] To correlate this with the active concentration in the plasma, the inventors took advantage of rabbit polyclonal antibodies generated against mS1ED, which detect active SSTN on dot blots. […] Using this method to detect active SSTN in the blood collected from animals after 1 week of SSTN treatment, SSTN is shown to be in the blood at 125-150 nM when present at 10 μM in the osmotic pump.

[2] = test system: segments of mouse aorta; assay type: cell-based; details: for block of VEGF-induced outgrowth: 50 ng/ml VEGF, 7 days
Procedure: FIG. 12—SSTN blocks aortic ring angiogenesis. Aortic segments were explanted to collagen gels for 7 days in the presence of 50 ng/ml vascular endothelial cell growth factor (VEGF), or 30 ng/ml FGF-2 in the presence or absence of mS1ED or SSTN. Total outgrowth in quantified as the total length of all microvessels.
To test the activity of SSTN as an anti-angiogenic agent, the inventors turned to the in vitro aortic ring outgrowth assay and the in vivo corneal angiogenesis model. The aortic outgrowth assay allows quantification of microvessel outgrowth from segments of mouse aorta explanted to type I collagen gels. As was found when examining the mouse aortic endothelial cell line in culture, both syndecan-1 and the αvβ3 and αvβ5 integrins appear present even on the resting mouse aorta (FIG. 11A). In addition, microvessels growing out from the aortic explant over a 7 days period in response to FGF stain positively for syndecan-1, with appears co-expressed with the αvβ3 and αvβ5 integrins (FIG. 11B). To extend this finding of syndecan-1 expression in activated endothelium, the inventors also examined two models of mouse breast tumor formation. Tumors derived from wnt-1 overexpression in the mammary gland show a high degree of vascularization, identified as internal networks lined by a thick cell layer than stains intensely for syndecan-1 and for PECAM (CD31), indicative of activated endothelium (FIG. 11C). In fact, syndecan-1 expression in these cells swamps out the positive staining for syndecan-1 seen in the mammary epithelial cells, which are known to be positive for syndecan-1. These same cell layers as positive for αv, β3 and β5 integrin subunits. A similar finding is seen in tumors arising from overexpression of β-catenin (FIG. 11C). Although the vascularization is not as extensive as in the […] tumors, there are clear thickened layers of cells that are PECAM, syndecan-1 and αvβ3/αvβ5 integrin positive in these mammary tumors.
To test the effect of SSTN on microvessel outgrowth, segments of thoracic aorta were explanted to collagen gels in the presence of either 50 ng/ml vascular endothelial cell growth factor (VEGF) or 30 ng/ml FGF-2, and incubated in the presence of either recombinant mS1ED or SSTN. Although some vessel outgrowth is observed in the absence of exogenous angiogenic agents, likely due to VEGF release by supporting cells growing out from the explant, the outgrowth is greatly (≥10-fold) increased by FGF or VEGF (FIG. 12). Addition of recombinant mS1ED blocks VEGF-induced outgrowth by more than 70% at 10 μM, and greater than 95% at 30 μM. FGF induced outgrowth requires slightly higher inhibitory concentrations (approximately 30 μM mS1ED for 70% inhibition), which may trace to a difference in susceptibility of the two integrins, as VEGF signaling is reportedly coupled to αvβ5 integrin activation and FGF signaling is coupled to αvβ3 activation. […] It should be noted that the microvessel outgrowth is accompanied by the outgrowth of support cells, most likely smooth muscle cells and fibroblasts. […] Thus, the effects of SSTN are highly localized to the vascular endothelial cells.

Row | Molecule | ill effects after one week of treatment ([1]; 100 μM in osmotic pump, activity, eating, weight, behavior) | estimated systemic concentration after 24 hr ([1]; 100 μM in pump, same assumptions) | IC50 [2] | estimated systemic concentration after 24 hr ([1]; 2.4 mM in pump, 1 μl per hour, assuming 2 ml blood volume, no degradation or clearance) | corneal angiogenesis ([1]; 2500 μM in Alzet pump, 67 ng FGF-2 pellet, 7 days) | FGF-induced corneal angiogenesis ([1]; in the pellet with FGF or systemic via osmotic pump, 2.4 mM, 1 μl per hour) | corneal angiogenesis ([1]; incorporated into the pellet) | concentration for 70% inhibition of FGF induced outgrowth ([2]; 30 ng/ml FGF-2, 7 days) | block of VEGF-induced outgrowth ([2]; 10 μM) | block of VEGF-induced outgrowth ([2]; 30 μM) | outgrowth of support cells (non-endothelial) ([2]; aortic ring explants)
1 | SNTETAFTSVLPAGEKPEEGEPVLHVEAEPGFTARDKEKEVTTRPRETV [synstatin82-130] | no ill effects | ≤ 1.2 µM | 100 nM | – | – | – | – | – | – | – | –
2 | S1ED: recombinant mouse Sdc1 ectodomain (amino acids 18-251), expressed in bacteria as GST fusion or 6×His-tagged protein (protein, left off: a dimerising Fc or GST, recombinant mouse Sdc1 ectodomain (amino acids 18-251), expressed in bacteria as GST fusion or 6×His-tagged protein) QPALPQIVAVNVPPEDQDGSGDDSDNFSGSGTGALPDTLSRQTPSTWKDVWLLTATPTAPEPTSSNTETAFTSVLPAGEKPEEGEPVLHVEAEPGFTARDKEKEVTTRPRETVQLPITQRASTVRVTTAQAAVTSHPHGGMQPGLHETSAPTAPGQPDHQPPRVEGGGTSVIKEVVEDGTANQLPAGEGSGEQDFTFETSGENTAVAAVEPGLRNQPPVDEGATGASQSLLDRK | – | – | – | approximately 29 μM | nearly total block of angiogenesis | blocks the FGF-induced angiogenesis | reduced the angiogenesis | approximately 30 μM | more than 70% | greater than 95% | unaffected
